Assay [1] has as its target T1, recombinant biotinylated CD71 extracellular domain (Sino Biologics) with an N-terminal 6His tag (human, UniProt P02786 89-760, biotinylated (sites not given)).
T1 construct: extracellular domain; also called hCD71; huCD71
The assay is described as follows: screening ELISA.

In assay [2] the target is T1, recombinant biotinylated CD71 …. The assay is described as follows: screening ELISA, ratio. Background: In an ELISA, binding on a coated surface is turned into a signal by an enzyme label.

T1 sequence (P02786 other isoform, or with tags, fused parts or gaps): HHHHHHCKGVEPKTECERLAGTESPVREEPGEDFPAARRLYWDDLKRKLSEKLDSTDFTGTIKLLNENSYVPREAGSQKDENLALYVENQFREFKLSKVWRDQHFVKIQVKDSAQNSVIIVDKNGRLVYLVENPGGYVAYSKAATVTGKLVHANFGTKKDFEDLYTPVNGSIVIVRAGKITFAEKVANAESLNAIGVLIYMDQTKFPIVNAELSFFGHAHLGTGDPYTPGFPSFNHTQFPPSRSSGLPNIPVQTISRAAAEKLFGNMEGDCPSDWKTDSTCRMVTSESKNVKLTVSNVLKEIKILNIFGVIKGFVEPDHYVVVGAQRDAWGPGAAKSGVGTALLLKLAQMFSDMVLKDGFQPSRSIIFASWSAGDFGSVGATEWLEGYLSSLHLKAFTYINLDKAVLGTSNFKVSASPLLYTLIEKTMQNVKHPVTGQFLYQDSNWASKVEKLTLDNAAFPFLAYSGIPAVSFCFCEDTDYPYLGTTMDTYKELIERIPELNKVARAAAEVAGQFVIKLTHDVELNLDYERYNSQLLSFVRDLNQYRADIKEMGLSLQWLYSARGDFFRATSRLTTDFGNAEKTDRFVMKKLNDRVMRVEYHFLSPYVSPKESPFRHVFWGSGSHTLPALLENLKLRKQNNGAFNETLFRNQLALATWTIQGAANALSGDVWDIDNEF

B1: SEQ ID NO 196 (designed binder)
chain: MLPAPKNLVVSRVTEDSARLSWTAPDAAFDSFNIHYVEWWVLGEAIVLTVPGSERSYDLTGLKPGTEYPVYIYGVKGGPKSIPLSAIFTT
notes: FN3 domain
With B1, the hCD71 in assay [1] came out at 1.72e+06. The “hCD71:HSA” value in assay [2] was 50.

B2: SEQ ID NO 201 (designed binder)
chain: MLPAPKNLVVSRVTEDSARLSWTAPDAAFDSFNIDYWETWVIGEAIVLTVPGSERSYDLTGLKPGTEYEVIIPGVKGGTISPPLSAIFTT
notes: FN3 domain
For B2, the hCD71 in assay [1] came out at 1.2e+06. Further, the “hCD71:HSA” value in assay [2] worked out at 106.

B3: SEQ ID NO 232 (designed binder)
chain: MLPAPKNLVVSRVTEDSARLSWTAPDAAFDSFTIAYDETLNLGEAIVLTVPGSERSYDLTGLKPGTEYIVGIFGVKGGTHSWPLSAIFTT
notes: FN3 domain
Take B3: the hCD71 in assay [1] was found to be 1.7e+06. For the same molecule, in assay [2], the “hCD71:HSA” value is 629.

B4: SEQ ID NO 224 (designed binder)
chain: MLLAPKNLVVSRVTEDSARLSWTAPDAAFDSFRYLEQGLYGEAIVLTVPGSERSYDLTGLKPGTEYWVEIIGVKGGEYSTPLSAIFTT
notes: FN3 domain
Turning to B4, the hCD71 in assay [1] came out at 2.02e+06. Further, the “hCD71:HSA” value in assay [2] is 122.

B5: SEQ ID NO 218 (designed binder)
chain: MLPAPKNLVVSRVTEDSARLSWTAPDAAFDSFTILYYEMVGEGEAIVLTVPGSERSYDLTGPKPGTEYWVDIYGVKGGGWSRPLSAIFTT
notes: FN3 domain
In the case of B5, the hCD71 in assay [1] was 2.39e+06. The “hCD71:HSA” value in assay [2] was found to be 71.

B6: SEQ ID NO 172 (designed binder)
chain: MLPAPKNLVVSRVTEDSARLSWTAPDAAFDSFPIEYDEWWALGEAITLIVPASERSYDLTGLKPGTEYVVKIHGVKGGQRSYPLIAFFTT
notes: FN3 domain
As for B6, the hCD71 in assay [1] amounted to 4.31e+06. The “hCD71:HSA” value in assay [2] was determined as 1160.

B7: SEQ ID NO 186 (designed binder)
chain: MLPAPKNLVVSRVTEDSARLSWTAPDAAFDSFFIGYLESAEAIVLTVPGSERSYDLTGLKPGTEYLVTIQGVKGGIASDPLSAIFTT
notes: FN3 domain
For B7, the hCD71 in assay [1] was found to be 2.02e+06. In addition, the “hCD71:HSA” value in assay [2] came to 1090.

B8: SEQ ID NO 191 (designed binder)
chain: MLPAPENLVVSRVTEDSARLSWTAPDAAFDSFEITYEENWRRGEAIVLTVPGSERSYDLTGPKPGTEYIVIIQGVKGGAESWPLSAIFTT
notes: FN3 domain
In the case of B8, the hCD71 in assay [1] was found to be 1.47e+06. The “hCD71:HSA” value in assay [2] was determined as 43.

B9: SEQ ID NO 173 (designed binder)
chain: MLPAPKNLVVSRVTEDSARLSWTAPDAAFDSFTIHYRELYVQAIVLTVPGSERSYDLTGLKPGTEYLVMIPGVKGGPTSVPLSAIFTT
notes: FN3 domain
For the molecule B9, in assay [1], the hCD71 amounted to 979000. Also, the “hCD71:HSA” value in assay [2] stood at 47.

B10: SEQ ID NO 184 (designed binder)
chain: MLPAPKNLVVSRITEDSARLSWTAPDAAFDSFGIGYYEHKRFGEAIQLSVPGSERSYDLTGLKPGTEYEVDIEGVKGGVLSWPLFAEFTT
notes: FN3 domain
As for B10, the hCD71 in assay [1] worked out at 470000. In assay [2], the “hCD71:HSA” value is 235.

B11: SEQ ID NO 221 (designed binder)
chain: MLPAPKNLVVSRVTEDSARLSWTAPDAAFDSFHISYQEVVAEGEAIYLRVPGSERSYDLTGLKPGTEYYVLIHGVKGGYESKPLDASFTT
notes: FN3 domain
For B11, the hCD71 in assay [1] is 1.96e+06. Besides, the “hCD71:HSA” value in assay [2] was determined as 537.

B12: SEQ ID NO 208 (designed binder)
chain: MLPAPKNLVVSRVTEDSARLSWTAPDAAFDSFGIVYREPYVGGEAIVLTVPGSERSYDLTGLKPGTEYGVPIPGVKGGYDSGPLSAIFTT
notes: FN3 domain
In the case of B12, the hCD71 in assay [1] came out at 2.29e+06. Besides, in assay [2], the “hCD71:HSA” value stood at 49.

B13: SEQ ID NO 209 (designed binder)
chain: MLPAPKNLVVSRVTEDSARLSWTAPDAAFDSFTIPYIEYVWWGEAIVLTVQGSERSYDLTGLKPGTEYPVTIGGVKGGSRSHPLHAHFTT
notes: FN3 domain
For B13, the hCD71 in assay [1] turned out to be 790000. The “hCD71:HSA” value in assay [2] turned out to be 57.

B14: SEQ ID NO 189 (designed binder)
chain: MLPAPKNLVVSRVTEDSARLSWTAPDAAFDSFHEWVYFGEAIVLTVPGSERSYDLTGLKPGTEYFVDIWGVKGGTVSKPLSAIFTT
notes: FN3 domain
Regarding B14, the hCD71 in assay [1] was 1.96e+06. For the same molecule, the “hCD71:HSA” value in assay [2] came to 29.

B15: SEQ ID NO 231 (designed binder)
chain: MLPAPKNLVVSRVTEDSARLSWTAPDAAFDSFEIPYIETVALGEAIVLTVPGSERSYDLTGLKPGTEYYVEIYGVKGGSYSYPLSAISTT
notes: FN3 domain
As to B15, the hCD71 in assay [1] stood at 2.27e+06. Also, the “hCD71:HSA” value in assay [2] stood at 86.

B16: SEQ ID NO 206 (designed binder)
chain: MLPAPKNLVVSRVTEDSARLSWTAPDAAFDSFDIEYDELWKNGEAIVLTVPGSERSYDLTGLKPGTEYRVFIYGVKGGYGSFPLSAIFTT
notes: FN3 domain
On to B16, for which, in assay [1], the hCD71 turned out to be 833000. For the same molecule, the “hCD71:HSA” value in assay [2] stood at 314.

B17: SEQ ID NO 204 (designed binder)
chain: MLPAPKNLVVSRVTEDSARLPWTAPDAAFDSFWISYYESVGYGEAIVLTVPGSERSYDLTGLKPGTEYYVDISGVKGGVYSLPLSAIFTT
notes: FN3 domain
Take B17: the hCD71 in assay [1] is 2.77e+06. The “hCD71:HSA” value in assay [2] turned out to be 113.

B18: SEQ ID NO 230 (designed binder)
chain: MLPAPKNLVVSRVTEDSARLSWTAPDAAFDSFQIRYPKRWISGEAIVLTVPGSERSYDLTGLKPGTEYEVVIRGVKGGEYSWPLSAIFTT
notes: FN3 domain
Consider B18, for which the hCD71 in assay [1] came out at 2e+06. The “hCD71:HSA” value in assay [2] is 1050.

B19: SEQ ID NO 171 (designed binder)
chain: MLPAPKNLVVSRVTEDSARLSWTAPDAAFDSFAIRYLEWWDVGEAIVLTVPGSERSYDLTGLKPGTEYLVEIKGVKGGKFSYPLSAIFTT
notes: FN3 domain
In the case of B19, the hCD71 in assay [1] came out at 3.72e+06. Also, in assay [2], the “hCD71:HSA” value came out at 1960.

B20: SEQ ID NO 229 (designed binder)
chain: MLPAPKNLVVSRVTEDSARLSWTAPDAAFDSFSIHYDEDWRRGEAIVLTVPGSERSYDLTGLKPGTEYLVEIPGVKGGKASYPLSAIFTT
notes: FN3 domain
Turning to B20, in assay [1], the hCD71 came out at 570000. Moreover, in assay [2], the “hCD71:HSA” value worked out at 154.

B21: SEQ ID NO 227 (designed binder)
chain: MLPAPKNLVVSRVTEDSARLSWTAPDAAFDSFRIRYLEWWNIGEAIVLTVPGSERSYDLTGLKPGTEYHVDIWGVKGGYSSYPLSAIFTT
notes: FN3 domain
On to B21, for which, in assay [1], the hCD71 came out at 3.85e+06. In addition, the “hCD71:HSA” value in assay [2] was 1680.

B22: SEQ ID NO 199 (designed binder)
chain: MLPAPKNLVVSRVTEDSARLSWTAPDAAFDSFGIRYFEWWDLGEAIVLTVPGSERSYDPTGLKPGTEYNVTIQGVKGGFPSMPLSAIFTT
notes: FN3 domain
B22: the hCD71 in assay [1] was found to be 1.46e+06. The “hCD71:HSA” value in assay [2] stood at 101.

B23: SEQ ID NO 203 (designed binder)
chain: MLPAPKNLVVSRVTEDSARLSWTAPDAALDSFRIEYYESYGHGEAIVLTVPGSERSYDLTGLKPGTEYDVGIYGVKGGYYSRPLSAIFTT
notes: FN3 domain
As to B23, the hCD71 in assay [1] was 3.38e+06. Besides, in assay [2], the “hCD71:HSA” value stood at 1020.

B24: SEQ ID NO 225 (designed binder)
chain: MLPAPKNLVVSRVTEDSARLSWTAPDAAFDSFKIEYFEYVGYGEAIVLTVPGSERSYDLTGLKPGTEYYVAIYGVKGGWYSRPLSAIFTT
notes: FN3 domain
B24: the hCD71 in assay [1] came to 2.96e+06. Also, the “hCD71:HSA” value in assay [2] was 210.
